The values below come from the supplement of paper PMC9112550, “Optimization of the antimicrobial peptide Bac7 by deep mutational scanning” (BMC Biology, 2022).
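Also: peptides expressed intracellularly from a pBAD plasmid library in pooled LB shake-flask culture, induced with 0.3% L-arabinose, DNA abundance read by NGS, three biological replicates, DESeq2 with apeglm shrinkage.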

In this data set the test system is Escherichia coli TOP10. The data set is described as follows: shrunken log2 fold change of peptide-encoding DNA abundance (4.5 h post-induction vs induction); higher = less antimicrobial activity (less host growth inhibition). The following applies: time post-induction: 4.5 h; library: site-saturation at positions 5, 18, 19, 20.
For RRIRIRPPRLPRPRPRPFIFPRP, the “shrunken log2 fold change” value was -0.696. Turning to RRIRVRPPRLPRPRPRPPMNPRP, the “shrunken log2 fold change” value was -0.205. With RRIRLRPPRLPRPRPRPTYAPRP, the “shrunken log2 fold change” value is -0.167.

For RRIRLRPPRLPRPRPRPLKTPRP, the “shrunken log2 fold change” value was -0.0135. Next, RRIRERPPRLPRPRPRPRQGPRP: 0.235; RRIRMRPPRLPRPRPRPDFSPRP: 0.0199. As for RRIRCRPPRLPRPRPRPIMQPRP, the figure is -0.193.

On to RRIRVRPPRLPRPRPRPCWDPRP, for which the “shrunken log2 fold change” value is -0.154. Next, RRIRPRPPRLPRPRPRPRCVPRP: 0.0965; RRIRKRPPRLPRPRPRPMEHPRP: -0.0568; RRIRWRPPRLPRPRPRPYVGPRP: -0.157. Next, RRIRNRPPRLPRPRPRPGLPPRP: 0.028.

Take RRIRVRPPRLPRPRPRPTFAPRP: the “shrunken log2 fold change” value is 0.294. As for RRIRQRPPRLPRPRPRPTGMPRP, the figure is 0.475; as for RRIRYRPPRLPRPRPRPENYPRP, -0.0233; as for RRIRNRPPRLPRPRPRPAECPRP, 0.0508. Next, RRIRGRPPRLPRPRPRPYLTPRP: -0.0518; RRIRLRPPRLPRPRPRPCEIPRP: 0.0237; RRIRRRPPRLPRPRPRPRPLPRP: 0.559.

Turning to RRIRERPPRLPRPRPRPGWIPRP, the “shrunken log2 fold change” value was -0.105. Next, RRIRGRPPRLPRPRPRPVQQPRP: 0.515; RRIRQRPPRLPRPRPRPKLNPRP: -0.165; RRIRQRPPRLPRPRPRPDRYPRP: 0.0513. As for RRIRRRPPRLPRPRPRPAMLPRP, the figure is 1.02; as for RRIRDRPPRLPRPRPRPEAYPRP, -0.0102; as for RRIRKRPPRLPRPRPRPDWWPRP, -0.0103. As for RRIRGRPPRLPRPRPRPVSGPRP, the figure is 0.731.

In the case of RRIRNRPPRLPRPRPRPEDDPRP, the “shrunken log2 fold change” value is -0.01.

Regarding RRIRGRPPRLPRPRPRPIHEPRP, the “shrunken log2 fold change” value is -0.135. Next, RRIRHRPPRLPRPRPRPEHRPRP: -0.137; RRIRARPPRLPRPRPRPYIDPRP: -0.186; RRIRNRPPRLPRPRPRPDFVPRP: -0.045. Next, RRIRIRPPRLPRPRPRPMNCPRP: 0.0904; RRIRRRPPRLPRPRPRPASHPRP: 0.4; RRIRSRPPRLPRPRPRPQKEPRP: 0.052. As for RRIRSRPPRLPRPRPRPMQVPRP, the “shrunken log2 fold change” value is -0.064. Next, RRIRNRPPRLPRPRPRPTRRPRP: 0.805. Turning to RRIRNRPPRLPRPRPRPPNSPRP, the “shrunken log2 fold change” value is -0.072. Next, RRIRPRPPRLPRPRPRPSRMPRP: -0.114; RRIRNRPPRLPRPRPRPDEIPRP: -0.043.

In the case of RRIRMRPPRLPRPRPRPWHDPRP, the “shrunken log2 fold change” value turned out to be 0.162.

Regarding RRIRPRPPRLPRPRPRPKMYPRP, the “shrunken log2 fold change” value was -0.938. As for RRIRLRPPRLPRPRPRPMWIPRP, the figure is -0.199; as for RRIRGRPPRLPRPRPRPGCLPRP, 1.01. As for RRIRYRPPRLPRPRPRPFANPRP, the figure is -0.245; as for RRIRLRPPRLPRPRPRPHGPPRP, 0.101; as for RRIRTRPPRLPRPRPRPHNIPRP, -0.455.

Take RRIRQRPPRLPRPRPRPMWDPRP: the “shrunken log2 fold change” value was -0.0352.

Regarding RRIRERPPRLPRPRPRPFSGPRP, the “shrunken log2 fold change” value is -0.55. Next, RRIRQRPPRLPRPRPRPREFPRP: 0.0416; RRIRNRPPRLPRPRPRPQHTPRP: -0.402. As for RRIRTRPPRLPRPRPRPGLKPRP, the figure is 0.0372; as for RRIRRRPPRLPRPRPRPLRLPRP, 0.59; as for RRIRERPPRLPRPRPRPPQPPRP, 0.307. Next, RRIRTRPPRLPRPRPRPSVYPRP: -0.389.

As for RRIRSRPPRLPRPRPRPSKSPRP, the “shrunken log2 fold change” value was -0.361.

Turning to RRIRSRPPRLPRPRPRPATTPRP, the “shrunken log2 fold change” value came out at 0.584. Next, RRIRGRPPRLPRPRPRPHWNPRP: -0.017; RRIRDRPPRLPRPRPRPTMQPRP: 0.625. As for RRIRARPPRLPRPRPRPFNVPRP, the figure is 0.0338.

For the sequence RRIRNRPPRLPRPRPRPPGAPRP, the “shrunken log2 fold change” value turned out to be 0.665. Next, RRIRQRPPRLPRPRPRPIWLPRP: 0.66; RRIRNRPPRLPRPRPRPFKVPRP: 0.0253; RRIRARPPRLPRPRPRPKCIPRP: 0.0328. As for RRIRARPPRLPRPRPRPRFGPRP, the “shrunken log2 fold change” value came out at 0.469. As for RRIRSRPPRLPRPRPRPHTYPRP, the figure is -0.265. Next, RRIRPRPPRLPRPRPRPRMCPRP: 0.152; RRIRFRPPRLPRPRPRPEGHPRP: 0.0933. For the sequence RRIRPRPPRLPRPRPRPYKCPRP, the “shrunken log2 fold change” value was -0.0297.

As to RRIRKRPPRLPRPRPRPHIHPRP, the “shrunken log2 fold change” value is -0.239. As for RRIRFRPPRLPRPRPRPCHTPRP, the figure is -0.17; as for RRIRVRPPRLPRPRPRPQEPPRP, 0.0426; as for RRIRYRPPRLPRPRPRPGSEPRP, -0.202. For the sequence RRIRWRPPRLPRPRPRPCTLPRP, the “shrunken log2 fold change” value is -0.842. Next, RRIRGRPPRLPRPRPRPMPIPRP: 0.0958; RRIRFRPPRLPRPRPRPPAMPRP: 0.775; RRIRYRPPRLPRPRPRPAWTPRP: -0.156. Next, RRIRGRPPRLPRPRPRPQTTPRP: 0.889; RRIRVRPPRLPRPRPRPCPEPRP: -0.189; RRIRWRPPRLPRPRPRPLIQPRP: 0.279.

Regarding RRIRFRPPRLPRPRPRPGDDPRP, the “shrunken log2 fold change” value stood at 0.342. RRIRVRPPRLPRPRPRPLHMPRP: the “shrunken log2 fold change” value is -0.17. As for RRIRARPPRLPRPRPRPKYQPRP, the figure is -0.112; as for RRIRNRPPRLPRPRPRPNWIPRP, -0.0612; as for RRIRNRPPRLPRPRPRPAEKPRP, 0.0519.

Turning to RRIRGRPPRLPRPRPRPVKNPRP, the “shrunken log2 fold change” value was determined as 0.554. Next, RRIRYRPPRLPRPRPRPHQHPRP: 0.0599. Regarding RRIRNRPPRLPRPRPRPTNQPRP, the “shrunken log2 fold change” value was -0.281. As for RRIRSRPPRLPRPRPRPMTPPRP, the figure is 0.13; as for RRIRPRPPRLPRPRPRPADRPRP, 0.408.

With RRIRYRPPRLPRPRPRPRIIPRP, the “shrunken log2 fold change” value is -0.457. Next, RRIRMRPPRLPRPRPRPSHMPRP: -0.146. As for RRIRRRPPRLPRPRPRPHINPRP, the “shrunken log2 fold change” value was -0.432. On to RRIRRRPPRLPRPRPRPRRIPRP, for which the “shrunken log2 fold change” value came out at 0.251. As for RRIRHRPPRLPRPRPRPHFLPRP, the figure is -0.0519; as for RRIRERPPRLPRPRPRPKLQPRP, 0.00297. As for RRIRARPPRLPRPRPRPLVEPRP, the figure is 0.666. Next, RRIRHRPPRLPRPRPRPYMWPRP: -1.86; RRIRSRPPRLPRPRPRPHVKPRP: -0.00963; RRIRFRPPRLPRPRPRPCPMPRP: -0.00789. Regarding RRIRRRPPRLPRPRPRPRLPPRP, the “shrunken log2 fold change” value is 0.663. As for RRIRDRPPRLPRPRPRPNMYPRP, the figure is -0.229; as for RRIRVRPPRLPRPRPRPVDRPRP, 0.257. As to RRIRLRPPRLPRPRPRPDEMPRP, the “shrunken log2 fold change” value came to 0.123. As for RRIRWRPPRLPRPRPRPLMHPRP, the figure is 0.0245; as for RRIRMRPPRLPRPRPRPKTRPRP, 0.994; as for RRIRTRPPRLPRPRPRPPALPRP, 0.311. As for RRIRWRPPRLPRPRPRPRRRPRP, the figure is 1.3.

With RRIRMRPPRLPRPRPRPFGFPRP, the “shrunken log2 fold change” value is -0.0868.

Consider RRIRSRPPRLPRPRPRPPEAPRP, for which the “shrunken log2 fold change” value was determined as 0.854. In the case of RRIRWRPPRLPRPRPRPSFEPRP, the “shrunken log2 fold change” value was -0.0836. As for RRIRGRPPRLPRPRPRPARHPRP, the figure is 0.664; as for RRIRVRPPRLPRPRPRPKPWPRP, 0.376.

Take RRIRQRPPRLPRPRPRPPEEPRP: the “shrunken log2 fold change” value was -0.00674. Next, RRIRRRPPRLPRPRPRPVRMPRP: 0.497; RRIRPRPPRLPRPRPRPTHSPRP: 0.185. Next, RRIRFRPPRLPRPRPRPAEKPRP: -0.0885; RRIRWRPPRLPRPRPRPWDTPRP: 0.0106.

For RRIRDRPPRLPRPRPRPNDQPRP, the “shrunken log2 fold change” value was -0.154.

Consider RRIRDRPPRLPRPRPRPTYSPRP, for which the “shrunken log2 fold change” value is -0.757. As for RRIRPRPPRLPRPRPRPRHIPRP, the figure is -0.0802; as for RRIRFRPPRLPRPRPRPQHSPRP, -0.347; as for RRIRERPPRLPRPRPRPDRQPRP, -0.0719. Next, RRIRMRPPRLPRPRPRPHDWPRP: 1.45. On to RRIRCRPPRLPRPRPRPEHFPRP, for which the “shrunken log2 fold change” value was -0.0319.
